In article doi:10.1101/2022.11.15.516651 (bioRxiv, 2022):
Where a chain is given by its changes, count along the chain named. Each block holds one binder with its values, some of them ahead of it.

What was measured:
[1] = target: T1, FLAG-SLC3A2 N365D (human, UniProt P08195-1 66-630, N365D); test: affinity purification with mass spectrometry
T1 sequence (looked up): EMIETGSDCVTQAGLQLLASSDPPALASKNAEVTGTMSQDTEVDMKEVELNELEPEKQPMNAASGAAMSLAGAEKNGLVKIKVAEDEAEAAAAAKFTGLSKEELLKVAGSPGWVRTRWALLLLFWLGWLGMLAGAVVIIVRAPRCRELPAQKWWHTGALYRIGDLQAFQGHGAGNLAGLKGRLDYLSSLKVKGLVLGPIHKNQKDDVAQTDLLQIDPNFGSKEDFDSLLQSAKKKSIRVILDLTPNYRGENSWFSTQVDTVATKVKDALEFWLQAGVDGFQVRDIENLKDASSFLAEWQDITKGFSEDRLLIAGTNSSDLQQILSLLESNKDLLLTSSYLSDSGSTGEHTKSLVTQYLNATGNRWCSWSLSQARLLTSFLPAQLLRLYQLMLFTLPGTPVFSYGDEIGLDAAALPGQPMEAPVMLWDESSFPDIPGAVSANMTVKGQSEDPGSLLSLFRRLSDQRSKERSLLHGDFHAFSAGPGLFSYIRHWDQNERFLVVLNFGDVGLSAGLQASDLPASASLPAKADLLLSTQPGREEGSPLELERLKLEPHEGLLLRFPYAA

[2] = target: T2, FLAG-SLC3A2 N381D (human, UniProt P08195-1 66-630, N381D); test: affinity purification with mass spectrometry
T2 sequence (looked up): T1 sequence (looked up) with D300N, N316D

percent decrease of association against WTseq [1]: 67 ± 15%
percent decrease of association against WTseq [2]: 67 ± 15%
B1: SLC7A11 (xc(-)) (natural protein, human (endogenous in HeLa), UniProt Q9UPY5 1-501, looked up)
chain: MVRKPVVSTISKGGYLQGNVNGRLPSLGNKEPPGQEKVQLKRKVTLLRGVSIIIGTIIGAGIFISPKGVLQNTGSVGMSLTIWTVCGVLSLFGALSYAELGTTIKKSGGHYTYILEVFGPLPAFVRVWVELLIIRPAATAVISLAFGRYILEPFFIQCEIPELAIKLITAVGITVVMVLNSMSVSWSARIQIFLTFCKLTAILIIIVPGVMQLIKGQTQNFKDAFSGRDSSITRLPLAFYYGMYAYAGWFYLNFVTEEVENPEKTIPLAICISMAIVTIGYVLTNVAYFTTINAEELLLSNAVAVTFSERLLGNFSLAVPIFVALSCFGSMNGGVFAVSRLFYVASREGHLPEILSMIHVRKHTPLPAVIVLHPLTMIMLFSGDLDSLLNFLSFARWLFIGLAVAGLIYLRYKCPDMHRPFKVPLFIPALFSFTCLFMVALSLYSDPFSTGIGFVITLTGVPAYYLFIIWDKKPRWFRIMSEKITRTLQIILEVVPEEDKL

percent decrease of association against WTseq [1]: 44 ± 14%
percent decrease of association against WTseq [2]: 44 ± 14%
B2: SLC7A5 (natural protein)
chain: not shown
